Test results taken from article PMC2852410, “Shared Active Site Architecture between the Large Subunit of Eukaryotic Primase and DNA Photolyase”.

Columns and labels:
[1] = target: T1, PriL-CTD (Saccharomyces cerevisiae, UniProt P20457 316-512, del381-383); assay: fluorescence anisotropy; 80 nM DNA; Buffer F: 20 mM HEPES pH 6.8, 150 mM KCl, 1 mM EDTA, 25 C; SPR in buffer F + 0.005% P20, 25 C; conditions: protein: recombinant, tags: N-terminal His6, removed by TEV
T1 sequence: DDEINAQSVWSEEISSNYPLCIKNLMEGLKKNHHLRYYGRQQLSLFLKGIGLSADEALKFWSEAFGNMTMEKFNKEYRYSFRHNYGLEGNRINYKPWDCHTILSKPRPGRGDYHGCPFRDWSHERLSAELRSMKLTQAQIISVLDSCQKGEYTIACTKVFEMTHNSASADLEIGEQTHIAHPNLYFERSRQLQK

[2] = target: T2, DNA primase large subunit PriL, full length;DNA primase small subunit PriS (Saccharomyces cerevisiae;Saccharomyces …, UniProt P20457;P10363 1-528;1-409, |); assay: fluorescence anisotropy; 20 nM DNA; Buffer F: 20 mM HEPES pH 6.8, 150 mM KCl, 1 mM EDTA, 25 C; SPR in buffer F + 0.005% P20, 25 C; conditions: protein: recombinant;recombinant; tags: ;; copies: 1;1; label: fluorescein; single strand
T2 sequence 1: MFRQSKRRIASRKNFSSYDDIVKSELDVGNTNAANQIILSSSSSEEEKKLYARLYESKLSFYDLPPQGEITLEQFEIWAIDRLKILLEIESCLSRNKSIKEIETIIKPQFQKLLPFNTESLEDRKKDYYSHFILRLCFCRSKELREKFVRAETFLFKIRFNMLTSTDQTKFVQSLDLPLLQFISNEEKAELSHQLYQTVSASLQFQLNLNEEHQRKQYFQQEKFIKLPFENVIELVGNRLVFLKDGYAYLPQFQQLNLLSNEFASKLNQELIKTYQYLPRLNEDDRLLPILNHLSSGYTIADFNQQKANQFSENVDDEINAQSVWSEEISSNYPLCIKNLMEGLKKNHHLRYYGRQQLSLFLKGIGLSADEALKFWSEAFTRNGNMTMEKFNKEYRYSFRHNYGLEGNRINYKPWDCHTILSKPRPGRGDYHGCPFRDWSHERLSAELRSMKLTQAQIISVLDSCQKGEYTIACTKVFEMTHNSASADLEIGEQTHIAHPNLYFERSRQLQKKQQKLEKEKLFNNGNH
T2 sequence 2: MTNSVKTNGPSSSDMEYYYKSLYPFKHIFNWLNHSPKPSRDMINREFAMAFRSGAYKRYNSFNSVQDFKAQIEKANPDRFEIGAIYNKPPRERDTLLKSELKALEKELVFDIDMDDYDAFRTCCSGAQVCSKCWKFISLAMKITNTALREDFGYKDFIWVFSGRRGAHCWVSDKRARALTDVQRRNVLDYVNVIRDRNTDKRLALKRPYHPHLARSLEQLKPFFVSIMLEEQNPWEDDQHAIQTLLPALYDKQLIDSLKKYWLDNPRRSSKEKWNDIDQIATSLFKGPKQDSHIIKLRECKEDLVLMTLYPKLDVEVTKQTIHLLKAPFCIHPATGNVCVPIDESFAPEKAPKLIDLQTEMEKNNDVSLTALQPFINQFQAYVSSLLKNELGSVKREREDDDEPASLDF

[3] = target: T1, PriL-CTD; assay: fluorescence anisotropy; Kd similar to the 70 µM of the mixed 20mer; data not shown; Buffer F: 20 mM HEPES pH 6.8, 150 mM KCl, 1 mM EDTA, 25 C; SPR in buffer F + 0.005% P20, 25 C; conditions: protein: recombinant; tags: N-terminal His6, removed by TEV; label: fluorescein; single strand

B1: ssDNA 20mer (fluorescein) (ssDNA)
DNA: GGTGAGAGGAGAATGGAAGT
- Kd ([1]; label: 5' fluorescein, single strand): 70 ± 0.2 µM

B2: dsDNA 20mer (fluorescein) (dsDNA)
DNA 1: GGTGAGAGGAGAATGGAAGT
DNA 2: ACTTCCATTCTCCTCTCACC
- Kd ([1]; label: 5' fluorescein on S2, the printed complement S1 carries 5' biotin, blunt): 178 ± 1.3 µM

B3: poly(dT) 40mer (ssDNA)
DNA: TTTTTTTTTTTTTTTTTTTTTTTTTTTTTTTTTTTTTTTT
- Kd [2]: 1.7 µM

B4: poly(dT) 20mer (ssDNA)
DNA: TTTTTTTTTTTTTTTTTTTT
- binding result [3]: binds
